From PMC4165468
Where two headings read alike, the source gives them in different places.

How the values were obtained:
Assay in all cases: SPR
[1] = target: T1, L7Ae (Archaeoglobus fulgidus, UniProt O29494 1-119)
[2] = target: T2, L7Ae-K (L7-K) (Archaeoglobus fulgidus, UniProt O29494 1-119, K37A)
[3] = target: T2, L7Ae-K (L7-K); remark: listed apart in the source
[4] = target: T1, L7Ae; remark: listed apart in the source

T2 sequence (O29494 whole entry K37A): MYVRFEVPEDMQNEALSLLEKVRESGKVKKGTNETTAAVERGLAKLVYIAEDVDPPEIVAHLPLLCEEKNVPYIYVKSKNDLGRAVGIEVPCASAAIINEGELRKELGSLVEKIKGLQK
T1 sequence (O29494 whole entry): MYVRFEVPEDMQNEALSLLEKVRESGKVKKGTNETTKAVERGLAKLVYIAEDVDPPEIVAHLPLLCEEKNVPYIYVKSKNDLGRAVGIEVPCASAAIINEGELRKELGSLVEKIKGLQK

Binder | Kd [1] [nM] | Kd [2] [nM] | Kd [3] [nM] | Kd [4] [nM]
GGAUCUGGGGCGUGAUCCGAAAGGUGACCCGGAUCC (structured_RNA) [K-turn] | 1.6 | 15 | – | –
GGAUCUGGGGUCUGAACGGUGAUGACCCGGAUCC (structured_RNA) [K-loop] | – | – | 26 | 2.2
